This data set concerns the target T1, FLAG-Npas4 (Mus musculus (mouse), UniProt Q8BGD7 1-802).
T1 sequence: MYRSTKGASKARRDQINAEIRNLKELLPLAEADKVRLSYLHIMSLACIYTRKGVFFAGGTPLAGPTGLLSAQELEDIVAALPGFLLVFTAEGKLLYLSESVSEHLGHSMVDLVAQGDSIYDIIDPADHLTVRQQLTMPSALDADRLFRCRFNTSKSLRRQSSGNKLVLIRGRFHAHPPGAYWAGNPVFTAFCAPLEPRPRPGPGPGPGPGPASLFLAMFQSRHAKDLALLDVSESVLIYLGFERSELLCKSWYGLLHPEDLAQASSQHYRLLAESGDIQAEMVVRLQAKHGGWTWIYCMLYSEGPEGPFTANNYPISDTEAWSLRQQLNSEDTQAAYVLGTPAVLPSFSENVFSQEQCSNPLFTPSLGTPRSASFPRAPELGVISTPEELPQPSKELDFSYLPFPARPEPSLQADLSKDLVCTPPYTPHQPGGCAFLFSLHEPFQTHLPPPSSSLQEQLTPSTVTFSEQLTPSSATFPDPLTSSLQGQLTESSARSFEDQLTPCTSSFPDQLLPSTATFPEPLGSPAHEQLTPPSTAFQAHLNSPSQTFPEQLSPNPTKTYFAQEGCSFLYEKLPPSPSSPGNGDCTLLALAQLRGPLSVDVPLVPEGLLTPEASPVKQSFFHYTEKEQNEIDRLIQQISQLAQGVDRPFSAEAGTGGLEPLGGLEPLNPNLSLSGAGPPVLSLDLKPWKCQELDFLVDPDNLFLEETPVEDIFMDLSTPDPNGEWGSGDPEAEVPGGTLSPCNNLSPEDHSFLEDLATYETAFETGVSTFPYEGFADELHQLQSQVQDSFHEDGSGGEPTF
The data set can be described thus: EMSA.

B1: Iqsec3 promoter WT probe (dsDNA)
DNA 1: CGGGAAGCAGGGTTCCTCACGAAGCCCAGAGGTGGGAGGTGG
DNA 2: CCACCTCCCACCTCTGGGCTTCGTGAGGAACCCTGCTTCCCG
Turning to B1, the binding result is on record as “binds”.

B2: Iqsec3 promoter MT probe (dsDNA)
DNA 1: CGGGAAGCAGGGTTCCTAAAAAAGCCCAGAGGTGGGAGGTGG
DNA 2: CCACCTCCCACCTCTGGGCTTTTTTAGGAACCCTGCTTCCCG
For the molecule B2, the binding result is reported as “no binding”.

For the origin of these results see publication doi:10.1101/659805.
